Experiment [1] concerns the target T1, full length human DLL4 (human, UniProt Q9NR61 27-685).
T1 construct: whole, on cells; also called native DLL4 expressed in HEK293 cells
Briefly: FACS titration, HEK293 cells with human DLL4. As to the method: The binding affinities of the purified antibodies for DLL4 was estimated using is both FACS and BIAcore techniques. […] The cells were then washed and incubated with goat anti-human IgG-Fc-Cy5+5 μg/mL 7-Amino-Actinomycin (7AAD) for 30 minutes at 4° C.
In this equation, F=mean fluorescence, LT=total molecular mAb concentration, P′=proportionality constant that relates arbitrary fluorescence units to bound mAb, M=cellular concentration in molarity, n=number of receptors per cell, B=background signal, and KD=equilibrium dissociation constant. For each mAb titration curve an estimate for KD is obtained as P′, n, B, and KD are allowed to float freely in the nonlinear analysis. Table 20 summarizes the affinity estimates for the anti-DLL4 antibodies for human and cynomolgus monkey DLL4 derived using the methodology described above

Experiment [2] has as its target T1, full length human DLL4. Briefly: FACS competition vs human Notch1/Fc, HEK293 cells with human DLL4. As to the method:
(§1) Further experiments were performed on selected antibodies using HEK293 cells that were stably transfected with either human, mouse or cynomolgus monkey DLL4 using retroviral constructs. In these experiments, anti-DLL4 antibodies (final concentration: 10-0.01 μg/ml) diluted in PBS containing 2% FCS were added to DLL4-expressing HEK 293 cells (50000 cells/well diluted in PBS containing 2% FCS) and incubated for 1 h at 4° C. Subsequently, Alexa-647 labeled human, rat or APC labeled mouse Notch1/Fc (e.g. R&D Systems, catalog #3647-TK-050, 1057-TK-050, 5267-TK-050, respectively) was added at a final concentration of 0.01-0.5 μg/ml and plates were incubated for a further 2 h at 4° C. prior to washing and reading on a FACSCalibur instrument.

Experiment [3] addresses T2, human soluble DLL4 (R&D systems catalog #1056-D4-050) (human, UniProt Q9NR61 27-524).
T2 construct: Catalog number as printed; perhaps the same product as #1506-D4; also called antigen DLL4
Briefly: Biacore T100, antibody immobilised, soluble human DLL4 as analyte. The procedure:
For Biacore analysis, each purified anti-DLL4 antibody was immobilized on a CM5 sensor chip within a T100 using standard amine coupling. Immobilization levels were kept below 200 RU. The concentration of DLL4 was determined by UV-VIS spectroscopy using a molar absorptivity at 280 nm of 110, 440 M⁻¹cm⁻¹, which was calculated from the sequence of the protein using a method developed by Pace et al. (G. R. Grimsley and C. N. Pace (2003) in Current Protocols in Protein Science (John Wiley & Sons, Inc.), 3.1.1-3.1.9). The antigen DLL4 (R&D systems; human catalog #1056-D4-050 or mouse, catalog #1389-D4-050) was diluted to a starting concentration of 32-64 nM and tested in a 3-fold dilution series in triplicate. The running buffer contained HBS-P with 0.1 mg/ml BSA and binding responses were collected at 23° C. Bound complexes were regenerated with a 15 s pulse of 10 mM of sodium hydroxide. The response data were globally fitted with a simple 1:1 interaction model and Table 20 summarizes the kₐ, kd and KD estimates obtained for the anti-DLL4 antibodies when binding to human soluble DLL4 was assessed.
(In SPR one partner is held on a chip, and binding of the other changes the refractive index at the surface.)

The target of experiment [4] is T1, full length human DLL4. The experiment is described as follows: FACS binding, HEK293 cells with human DLL4. As to the method: (§2) The activity of the mutated antibodies was assessed in two ways: firstly, the ability of the antibodies to block the binding of soluble Notch1/Fc to full length human DLL4 stably expressed in HEK293 cells as described in Example 3 was determined and, secondly, the binding of the antibodies to the same cell line used in the receptor-ligand competition studies was determined. For the binding studies, HEK293 cells stably overexpressing human DLL4 were resuspended in PBS containing 2% FCS at a concentration of 50,000 cells/well and incubated with titrations of antibody (final concentrations 0.01-10 μg/ml) for 1 h at 4° C. The cells were then washed and incubated with 0.31 μg/ml anti-human IgG-Fc-FITC (BD Pharmingen, cat#555786) for 30 minutes at 4° C. Bound […] was detected using FACS analysis. Results of these studies are summarized in Table 23, which show the effects of specific mutations to sequences of 9G8 and 2H10 on the ability of the antibodies to compete with Notch1 for binding to human DLL4 or to bind to human DLL4 relative to unmutated antibodies.
A general note: A flow cytometer gives signals particle by particle.

In experiment [5] the target is T1, full length human DLL4. Briefly: FACS competition vs Notch1/Fc, HEK293 cells with human DLL4. The procedure: as §1, §2

T2 sequence (Q9NR61 27-524 limits assumed): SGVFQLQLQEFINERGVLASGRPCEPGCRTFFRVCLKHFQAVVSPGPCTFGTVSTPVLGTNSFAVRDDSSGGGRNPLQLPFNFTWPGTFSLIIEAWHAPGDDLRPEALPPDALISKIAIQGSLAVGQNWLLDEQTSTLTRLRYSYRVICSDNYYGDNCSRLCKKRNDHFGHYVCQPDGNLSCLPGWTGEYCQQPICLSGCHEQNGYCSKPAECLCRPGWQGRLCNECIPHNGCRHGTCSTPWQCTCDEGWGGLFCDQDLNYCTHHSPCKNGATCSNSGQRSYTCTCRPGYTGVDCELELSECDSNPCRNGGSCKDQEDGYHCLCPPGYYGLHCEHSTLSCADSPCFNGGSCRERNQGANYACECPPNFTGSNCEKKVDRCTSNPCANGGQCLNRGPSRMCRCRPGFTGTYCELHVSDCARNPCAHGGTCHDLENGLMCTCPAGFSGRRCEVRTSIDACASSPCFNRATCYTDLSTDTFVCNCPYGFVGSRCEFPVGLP
T1 sequence (Q9NR61 27-685): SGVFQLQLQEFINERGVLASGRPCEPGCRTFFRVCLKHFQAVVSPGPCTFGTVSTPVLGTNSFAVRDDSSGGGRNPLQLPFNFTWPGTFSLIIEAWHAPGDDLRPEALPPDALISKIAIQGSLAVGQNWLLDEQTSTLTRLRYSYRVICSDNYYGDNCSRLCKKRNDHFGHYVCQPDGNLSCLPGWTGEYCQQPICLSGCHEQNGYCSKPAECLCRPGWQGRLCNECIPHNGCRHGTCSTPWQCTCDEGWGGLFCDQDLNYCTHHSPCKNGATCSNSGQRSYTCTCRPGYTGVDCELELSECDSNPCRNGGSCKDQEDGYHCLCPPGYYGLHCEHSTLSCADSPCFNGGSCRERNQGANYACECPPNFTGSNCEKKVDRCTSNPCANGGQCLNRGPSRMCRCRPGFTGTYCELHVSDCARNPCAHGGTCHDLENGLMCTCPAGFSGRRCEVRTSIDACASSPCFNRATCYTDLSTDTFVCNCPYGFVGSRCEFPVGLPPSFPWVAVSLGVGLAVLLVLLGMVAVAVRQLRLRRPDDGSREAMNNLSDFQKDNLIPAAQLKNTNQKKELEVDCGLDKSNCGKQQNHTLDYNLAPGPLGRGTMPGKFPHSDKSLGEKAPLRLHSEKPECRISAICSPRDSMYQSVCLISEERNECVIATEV

B1: 21H3 IgG1 (antibody, V domains shown)
VH: QVQLVQSGAEVKKPGASVKVSCKASGYTFTNYGITWVRQAPGQGPEWMGWISAYNGNTNYAQKLQDRVTVTTDTSTSTAYMELRSLRSDDTAVYYCARDRVPRIPVTTEAFDIWGQGTMVTVSS
VL: QSVLTQPPSASGTPGQRVTISCSGSSSNIGSYFVYWYQQLPGTAPKLLIYRNNQRPSGVPDRFSGSESGTSASLAISGLRSEDEADYYCAAWDDSLSGHWVFGGGTRLTVL
notes: Formatted as IgG1
The Kd is a measure of binding affinity in units of concentration. Lower therefore signals tighter binding. In general, IC50 refers to the point on the concentration scale where inhibition reaches its midpoint. Read a low IC50 as greater potency in that assay. One may read the koff as the rate constant with which the complex falls apart. High values mean a short-lived complex, low ones a long-lived complex. By kon is commonly meant the second-order rate constant of association. A lower kon goes with slow association. B1 displayed a Kd in the experiment with full length human DLL4 [1] of 103 pM. In addition, the IC50 with full length human DLL4 [2] is 570 pM. Moreover, in experiment [3], the Kd amounted to 594 pM, the koff stood at 0.000171 s⁻¹ and the kon stood at 288000 M⁻¹ s⁻¹.

B2: 2H10 IgG2 VH wt/VL wt (antibody, V domains shown)
VH: QVQLVESGGGVVQPGRSLRLSCAASGFTFSRHGMHWVRQAPGKGLEWVAVVWFDGSNIYYADSVKGRFTISRDNSKNTLYLQMNSLRAEDTAMYYCARDSRIAAADYWGQGTLVTVSS
VL: SYELTQPPSVSVSPGQTVSITCSGDKLGDKYVCWYQQKPGQSPVLVIYQESKRPSGIPERFSGSSSGNTATLTISGTQAMDEADYYCQTWDSSLVVFGGGTKLTVL
notes: IgG2, transiently expressed
As a reminder, the EC50 is the concentration giving half of the maximal effect. Read a high EC50 as lower potency in that assay. As for B2, in the experiment with full length human DLL4 [4], the EC50 is 0.043 µg/mL. The IC50 with full length human DLL4 [5] is 0.224 µg/mL.

B3: 2H10 IgG2 VH wt/VL C33S (antibody, V domains shown)
VH: QVQLVESGGGVVQPGRSLRLSCAASGFTFSRHGMHWVRQAPGKGLEWVAVVWFDGSNIYYADSVKGRFTISRDNSKNTLYLQMNSLRAEDTAMYYCARDSRIAAADYWGQGTLVTVSS
VL: SYELTQPPSVSVSPGQTVSITCSGDKLGDKYVSWYQQKPGQSPVLVIYQESKRPSGIPERFSGSSSGNTATLTISGTQAMDEADYYCQTWDSSLVVFGGGTKLTVL
notes: IgG2
Molecule B3 registered a concentration giving a half-maximal response (EC50) in the experiment with full length human DLL4 [4] of 0.031 µg/mL. This molecule yielded an IC50 in the experiment with full length human DLL4 [5] of 0.084 µg/mL.

B4: 4B4 IgG1 (antibody, V domains shown)
VH: QVLLIQSGAEVKKPGASVQVSCKASGYTFTNYGVIWVRQAPGQGLEYMGWISAYNGNTNYAQKLQDRVTMTSDTSTTTAYMELRSLRSDDTAVYYCARELGSSFDYWGQGTLVTVSS
VL: SYELTQPPSVSVSPGQTARITCSGDALPKKYAYWYQQKSGQAPVLVIYEDIKRPSGIPERFSGSSSGTMATLTISGAQVEDEADYYCFSTDNSGDHSVFGGGTKLTVL
notes: Formatted as IgG1
Molecule B4 returned a Kd with full length human DLL4 [1] of 157 pM. The molecule also showed an IC50 with full length human DLL4 [2] of 850 pM. In experiment [3], this molecule showed a Kd of 170 pM, a koff of 2.01e-05 s⁻¹ and a kon of 118000 M⁻¹ s⁻¹.

B5: 4B4 IgG2 (antibody, V domains shown)
VH: QVLLIQSGAEVKKPGASVQVSCKASGYTFTNYGVIWVRQAPGQGLEYMGWISAYNGNTNYAQKLQDRVTMTSDTSTTTAYMELRSLRSDDTAVYYCARELGSSFDYWGQGTLVTVSS
VL: SYELTQPPSVSVSPGQTARITCSGDALPKKYAYWYQQKSGQAPVLVIYEDIKRPSGIPERFSGSSSGTMATLTISGAQVEDEADYYCFSTDNSGDHSVFGGGTKLTVL
notes: Formatted as IgG2
B5: the Kd in the experiment with full length human DLL4 [1] came out at 232 pM. In the experiment with full length human DLL4 [2], the IC50 stood at 1190 pM. In experiment [3], this molecule displayed a Kd of 336 pM, a koff of 3.6e-05 s⁻¹ and a kon of 107000 M⁻¹ s⁻¹.

B6: 9G8 IgG2 VH wt/VL S7P (antibody, V domains shown)
VH: QLQLQESGPGLVKPSETLSLSCTVSGGSISSSSSYWGLIRQPPGKGLEWIGSIYYSGSTYYSPSLKSRVSISVDTSKNQFSLKLSSVTAADTAVYFCARQGYGGHPDVFDIWGQGTMVTVSS
VL: SSELTQPPSVSVSPGQTARITCSGDKLGDVYVCWYQQKTGQSPVLVIYEDTKRPSGIPERFSGSNSGNTATLTISGTQVMDEADYYCQAWDSTTAVIFGGGTKLTVL
notes: IgG2
With B6, the EC50 in the experiment with full length human DLL4 [4] worked out at 0.082 µg/mL. The molecule also had an IC50 in the experiment with full length human DLL4 [5] of 0.181 µg/mL.

B7: 9G8 IgG2 VH wt/VL V79A (antibody, V domains shown)
VH: QLQLQESGPGLVKPSETLSLSCTVSGGSISSSSSYWGLIRQPPGKGLEWIGSIYYSGSTYYSPSLKSRVSISVDTSKNQFSLKLSSVTAADTAVYFCARQGYGGHPDVFDIWGQGTMVTVSS
VL: SSELTQSPSVSVSPGQTARITCSGDKLGDVYVCWYQQKTGQSPVLVIYEDTKRPSGIPERFSGSNSGNTATLTISGTQAMDEADYYCQAWDSTTAVIFGGGTKLTVL
notes: IgG2
As to B7, in the experiment with full length human DLL4 [4], the EC50 is 0.095 µg/mL. The molecule also yielded an IC50 with full length human DLL4 [5] of 0.211 µg/mL.

Source of the values: patent publication US20100196385A1 (AstraZeneca / MedImmune, published 2010).
